Assay results: publication PMC9348634, “Insight into the mechanism of DNA synthesis by human terminal deoxynucleotidyltransferase”

What was measured:
Settings in all cases: label: 5'-FAM; single strand
[1] = molecular target: T1, terminal deoxynucleotidyltransferase (TdT) (human, UniProt P04053 1-509); assay: MST; Co2+; Kd treated by authors as estimate; MST with 5.0 mM Mg2+ (Mn2+ or Co2+ in other runs, concentration not given); buffer, salt, pH and temperature not in the material
[2] = molecular target: T1, terminal deoxynucleotidyltransferase …; assay: MST; 5.0 mM Mg2+; MST with 5.0 mM Mg2+ (Mn2+ or Co2+ in other runs, concentration not given); buffer, salt, pH and temperature not in the material
[3] = molecular target: T1, terminal deoxynucleotidyltransferase …; assay: MST; Mn2+; Kd treated by authors as estimate; MST with 5.0 mM Mg2+ (Mn2+ or Co2+ in other runs, concentration not given); buffer, salt, pH and temperature not in the material

T1 sequence (P04053 whole entry): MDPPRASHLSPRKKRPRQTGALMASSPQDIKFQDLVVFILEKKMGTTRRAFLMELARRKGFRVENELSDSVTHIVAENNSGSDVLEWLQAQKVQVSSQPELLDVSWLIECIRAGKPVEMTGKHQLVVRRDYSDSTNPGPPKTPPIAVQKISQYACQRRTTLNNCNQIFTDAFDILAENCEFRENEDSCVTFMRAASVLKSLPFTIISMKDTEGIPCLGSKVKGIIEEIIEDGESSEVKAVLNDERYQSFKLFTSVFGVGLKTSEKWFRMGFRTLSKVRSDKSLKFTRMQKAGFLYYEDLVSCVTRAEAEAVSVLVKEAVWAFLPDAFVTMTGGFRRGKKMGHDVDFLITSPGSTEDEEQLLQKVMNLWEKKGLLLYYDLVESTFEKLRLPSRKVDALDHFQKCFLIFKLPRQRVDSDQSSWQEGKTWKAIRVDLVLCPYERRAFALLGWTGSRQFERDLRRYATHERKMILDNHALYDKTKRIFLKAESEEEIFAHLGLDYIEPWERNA

GGAAGA (ssDNA) [DNA primer FAM-GGAAGA] gave a Kd [1] of 700 ± 100 nM, a Kd [2] of 4.6 ± 0.1 µM and a Kd [3] of 800 ± 200 nM.
